We go through 8 molecules from patent US20190233475A1 (Bicycle, published 2019).

Where two headings read alike, the source gives them in different places. *1 amine or outer side, *2 acyl side, *3 side chain or, on linkers, in order; H or OH if unused. Bridges are numbered along the chain shown (N, C = ends). Where no end group is shown, it is not given here. TBMB = c1c(C[*:1])cc(C[*:3])cc1C[*:2]

Common to all, as to experiment: enzyme inhibition assay, fluorogenic substrate Z-PheArg-AMC
Test [1] has as its target T1, rat plasma kallikrein (rat, UniProt P14272 391-638).
T1 construct: domain: catalytic domain; Expressed and purified in house; also called rat kallikrein; rPK
The procedure: (§1) Functional enzyme assays were conducted in 10 mM Tris HCl, 150 mM NaCl, 10 mM MgCl₂, 1 mM CaCl₂ and 1 mg/mL BSA (all Sigma UK) pH 7.4 at 25° C. in solid black 96 or 384 well plates. […] Release of AMC was measured using a Pherastar FS (BMG Labtech), excitation 360 nm, emission 460 nm. The rate of the linear phase of the reaction, typically 5 to 45 minutes, was calculated in MARS data analysis software (BMG labtech). The rate was then used to calculate the IC₅₀ and Kᵢ in Prism (GraphPad). A four parameter inhibition non-linear regression equation was used to calculate the IC₅₀. The One site-fit Kᵢ equation used to calculate the Kᵢ, constraining the Kᵢ to the Kₘ for the substrate which is 150 μM for the human enzyme, and 200 μM for the rat orthologue. All Kᵢ/IC₅₀ values are the mean of at least two independent experiments, and at least three for peptides with Kᵢ values lower than 1 nM. For rabbit kallikrein, between 7 to 14 pM enzyme was employed, with 33 μM substrate with a Kₘ of 50 μM.

In test [2] the target is T2, human plasma kallikrein (human, UniProt P03952 20-638).
T2 construct: Enzyme used in the Ki assays; also called human kallikrein; PK
T2 sequence (P03952 20-638 limits assumed): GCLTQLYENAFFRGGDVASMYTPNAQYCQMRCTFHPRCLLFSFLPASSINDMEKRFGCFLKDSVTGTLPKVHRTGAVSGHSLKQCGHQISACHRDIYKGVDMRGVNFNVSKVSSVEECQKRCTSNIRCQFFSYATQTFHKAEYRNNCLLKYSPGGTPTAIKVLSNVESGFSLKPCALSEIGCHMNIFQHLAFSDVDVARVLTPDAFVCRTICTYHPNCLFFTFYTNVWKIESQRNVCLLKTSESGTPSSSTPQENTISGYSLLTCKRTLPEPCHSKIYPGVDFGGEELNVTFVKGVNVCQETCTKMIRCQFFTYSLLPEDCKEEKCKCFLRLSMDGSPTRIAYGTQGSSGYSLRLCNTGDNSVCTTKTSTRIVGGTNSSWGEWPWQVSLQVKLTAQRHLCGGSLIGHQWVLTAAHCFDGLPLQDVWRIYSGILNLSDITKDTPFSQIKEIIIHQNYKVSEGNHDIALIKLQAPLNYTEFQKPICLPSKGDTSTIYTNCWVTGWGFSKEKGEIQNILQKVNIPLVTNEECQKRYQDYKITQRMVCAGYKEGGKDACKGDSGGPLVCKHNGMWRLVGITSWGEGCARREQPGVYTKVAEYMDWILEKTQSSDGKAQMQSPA
Here is the method: as §1

The target of test [3] is T1, rat plasma kallikrein. The procedure: as §1
The source holds these as a separate data set.

The target in test [4] is T2, human plasma kallikrein. The procedure: as §1
The source holds these as a separate data set.

T1 sequence (P14272 391-638 limits assumed): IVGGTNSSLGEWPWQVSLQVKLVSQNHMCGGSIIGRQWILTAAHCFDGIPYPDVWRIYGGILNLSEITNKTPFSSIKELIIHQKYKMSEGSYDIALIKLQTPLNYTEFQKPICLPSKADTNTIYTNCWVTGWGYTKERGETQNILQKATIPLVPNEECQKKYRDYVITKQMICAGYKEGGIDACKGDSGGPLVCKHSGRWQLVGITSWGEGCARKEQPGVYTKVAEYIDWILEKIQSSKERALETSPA

B1: 06-254-03 (peptide)
peptide: ACKNYWNPCDLVMDTCA-NH2
modifications: linker 2-9-16 via TBMB; N-terminus assumed
SMILES: CSCC[C@@H]1NC(=O)[C@H](C(C)C)NC(=O)[C@H](CC(C)C)NC(=O)[C@H](CC(=O)O)NC(=O)[C@@H]2CSCc3cc(cc(c3)CSC[C@@H](C(=O)N[C@@H](C)C(N)=O)NC(=O)[C@H]([C@@H](C)O)NC(=O)[C@H](CC(=O)O)NC1=O)CSC[C@H](NC(=O)[C@H](C)N)C(=O)N[C@@H](CCCCN)C(=O)N[C@@H](CC(N)=O)C(=O)N[C@@H](Cc1ccc(O)cc1)C(=O)N[C@@H](Cc1c[nH]c3ccccc13)C(=O)N[C@@H](CC(N)=O)C(=O)N1CCC[C@H]1C(=O)N2
notes: Synthetic bicyclic peptide, 6 x 6, made on Rink amide resin
Turning to B1, the Ki with rat plasma kallikrein [1] came to 10.1 nM; with human plasma kallikrein [2] it was 1.4 nM.

B2: 06-254-02 (peptide)
peptide: ACKNYWNPCDLIPGPCA-NH2
modifications: linker 2-9-16 via TBMB; N-terminus assumed
SMILES: CC[C@H](C)[C@@H]1NC(=O)[C@H](CC(C)C)NC(=O)[C@H](CC(=O)O)NC(=O)[C@@H]2CSCc3cc(cc(c3)CSC[C@@H](C(=O)N[C@@H](C)C(N)=O)NC(=O)[C@@H]3CCCN3C(=O)CNC(=O)[C@@H]3CCCN3C1=O)CSC[C@H](NC(=O)[C@H](C)N)C(=O)N[C@@H](CCCCN)C(=O)N[C@@H](CC(N)=O)C(=O)N[C@@H](Cc1ccc(O)cc1)C(=O)N[C@@H](Cc1c[nH]c3ccccc13)C(=O)N[C@@H](CC(N)=O)C(=O)N1CCC[C@H]1C(=O)N2
notes: as for B1
For the molecule B2, the Ki was determined as 7.6 nM with rat plasma kallikrein [1] and 0.5 nM in the test with human plasma kallikrein [2].

B3: 06-259 (peptide)
peptide: ACNTWNPWCGWVGGFCA-NH2
modifications: linker 2-9-16 via TBMB
notes: as for B1
Consider B3, for which the inhibition constant Ki was found to be 6.2 nM in the test with rat plasma kallikrein [1], 20.1 nM with human plasma kallikrein [2], 6.2 nM with rat plasma kallikrein [3] and 20.1 nM with human plasma kallikrein [4].

B4: 06-259-03 (peptide)
peptide: ACNHWNPWCSADPPICA-NH2
modifications: linker 2-9-16 via TBMB
notes: as for B1
Take B4: the Ki turned out to be 8.2 nM in the test with rat plasma kallikrein [1] and 1.4 nM in the test with human plasma kallikrein [2].

B5: 06-257 (peptide)
peptide: ACPLSDTLCYRRMPPCA-NH2
modifications: linker 2-9-16 via TBMB
notes: as for B1
Regarding B5, the inhibition constant Ki is 159 nM in the test with rat plasma kallikrein [1], 36.1 nM with human plasma kallikrein [2], 159 nM with rat plasma kallikrein [3] and 36.1 nM with human plasma kallikrein [4].

B6: 06-259-01 (peptide)
peptide: ACNHWNPWCSVEPPVCA-NH2
modifications: linker 2-9-16 via TBMB
notes: as for B1
Take B6: the inhibition constant Ki in the test with rat plasma kallikrein [1] was determined as 10.4 nM; with human plasma kallikrein [2], 2.4 nM.

B7: 06-254-01 (peptide)
peptide: ACKNYWNPCDLIETTCA-NH2
modifications: linker 2-9-16 via TBMB; N-terminus assumed
SMILES: CC[C@H](C)[C@@H]1NC(=O)[C@H](CC(C)C)NC(=O)[C@H](CC(=O)O)NC(=O)[C@@H]2CSCc3cc(cc(c3)CSC[C@@H](C(=O)N[C@@H](C)C(N)=O)NC(=O)[C@H]([C@@H](C)O)NC(=O)[C@H]([C@@H](C)O)NC(=O)[C@H](CCC(=O)O)NC1=O)CSC[C@H](NC(=O)[C@H](C)N)C(=O)N[C@@H](CCCCN)C(=O)N[C@@H](CC(N)=O)C(=O)N[C@@H](Cc1ccc(O)cc1)C(=O)N[C@@H](Cc1c[nH]c3ccccc13)C(=O)N[C@@H](CC(N)=O)C(=O)N1CCC[C@H]1C(=O)N2
notes: as for B1
As to B7, the Ki in the test with rat plasma kallikrein [1] is 15.9 nM; in the test with human plasma kallikrein [2] it was 1 nM.

B8: 06-259-04 (peptide)
peptide: ACNYWNPWCPWDAPLCA-NH2
modifications: linker 2-9-16 via TBMB
notes: as for B1
Regarding B8, the Ki in the test with rat plasma kallikrein [1] worked out at 6.7 nM; in the test with human plasma kallikrein [2], 3.4 nM.
